This note sets out measurements from PMC9637899.

This test concerns the target T1, ElpQ_(181–343).
T1 chain: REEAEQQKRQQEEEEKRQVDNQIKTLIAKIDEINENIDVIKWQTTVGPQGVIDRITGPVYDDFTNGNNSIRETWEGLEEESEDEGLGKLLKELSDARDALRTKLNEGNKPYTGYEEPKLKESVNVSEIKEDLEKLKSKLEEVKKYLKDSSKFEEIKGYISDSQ
Description: SPR. The note with it: chain shown with the change; steady-state response at the highest analyte concentration plotted (about 5e-7 M on the x axis); ElpQ181-343 immobilized, C1s construct injected; parent: est. 140; read off a plot.

B1: activated C1s–CCP1–CCP2–SP, P09871 E326A; D358A; K575A; R576A; R581A; K583A (protein)
chain: EPTMYGEILSPNYPQAYPSEVEKSWDIEVPEGYGIHLYFTHLDIELSENCAYDSVQIISGDTEEGRLCGQRSSNNPHSPIVEEFQVPYNKLQVIFKSDFSNEERFTGFAAYYVATDINECTDFVDVPCSHFCNNFIGGYFCSCPPEYFLHDDMKNCGVNCSGDVFTALIGEIASPNYPKPYPENSRCEYQIRLEKGFQVVVTLRREDFDVEAADSAGNCLDSLVFVAGDRQFGPYCGHGFPGPLNIETKSNALDIIFQTDLTGQKKGWKLRYHGDPMPCPKEDTPNSVWEPAKAKYVFRDVVQITCLDGFAVVEGRVGATSFYSTCQSNGKWSNSKLKCQPVACGIPESIENGKVEDPESTLFGSVIRYTCEEPYYYMENGGGGEYHCAGNGSWVNEVLGPELPKCVPVCGVPREPFEEKQRIIGGSDADIKNFPWQVFFDNPWAGGALINEYWVLTAAHVVEGNREPTMYVGSTSVQTSRLAKSKMLTPEHVFIHPGWKLLEVPEGRTNFDNDIALVRLKDPVKMGPTVSPICLPGTSSDYNLMDGDLGLISGWGRTEAADRAVALAAARLPVAPLRKCKEVKVEKPTADAEAYVFTPNMICAGGEKGMDSCKGDSGGAFAVQDPNDKTKFYAAGLVSWGPQCGTYGLYTRVKNYVDWIMKTMQENSTPRED
B1: the response came to 0 RU.

B2: activated C1s–CCP1–CCP2–SP, P09871 K575A; R576A; R581A; K583A (protein)
chain: EPTMYGEILSPNYPQAYPSEVEKSWDIEVPEGYGIHLYFTHLDIELSENCAYDSVQIISGDTEEGRLCGQRSSNNPHSPIVEEFQVPYNKLQVIFKSDFSNEERFTGFAAYYVATDINECTDFVDVPCSHFCNNFIGGYFCSCPPEYFLHDDMKNCGVNCSGDVFTALIGEIASPNYPKPYPENSRCEYQIRLEKGFQVVVTLRREDFDVEAADSAGNCLDSLVFVAGDRQFGPYCGHGFPGPLNIETKSNALDIIFQTDLTGQKKGWKLRYHGDPMPCPKEDTPNSVWEPAKAKYVFRDVVQITCLDGFEVVEGRVGATSFYSTCQSNGKWSNSKLKCQPVDCGIPESIENGKVEDPESTLFGSVIRYTCEEPYYYMENGGGGEYHCAGNGSWVNEVLGPELPKCVPVCGVPREPFEEKQRIIGGSDADIKNFPWQVFFDNPWAGGALINEYWVLTAAHVVEGNREPTMYVGSTSVQTSRLAKSKMLTPEHVFIHPGWKLLEVPEGRTNFDNDIALVRLKDPVKMGPTVSPICLPGTSSDYNLMDGDLGLISGWGRTEAADRAVALAAARLPVAPLRKCKEVKVEKPTADAEAYVFTPNMICAGGEKGMDSCKGDSGGAFAVQDPNDKTKFYAAGLVSWGPQCGTYGLYTRVKNYVDWIMKTMQENSTPRED
B2: the response is 8 RU.
